Assay: label from the status in PepcDB records
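Note: failed if final PepcDB status was selected cloned or expressed and not failed if soluble or beyond.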

Row | Sequence | protein production
1 | MCQESVIVMQATQPLQTVSQAVPKEFLQADGGFNPNVAMFGIAILLMLANVFGYWQWGLPHWLCFSCSVLALHLSGTVIHDASHNAAHRNTIINAVLGHGSALMLGFAFPVFTRVHLQHHANVNDPENDPDHFVSTGGPLFLIAARFFYHEIFFFKRRLWRKYELLEWFLSRLVLFTIVFLGIHYGFIGFVMNYWFVPALIVGIALGLFFDYLPHRPFQERNRWKNARVYPSPILNWLIFGQNYHLIHHLWPSIPWYQYQNTYHITKPILDEKGCDQSLGLLEGKNFWSFLYDVFLGIRFHGHNNSQSSDKP | failed
2 | MCRALLSITMQIPLVKWTEGLNIKTIVSISYVCYAVAAIGFAFSSSIFWLLSTAVLFTAAESMLLNHMQTFVSRLAPNHIRGGYFAFFGPHWDISRTIGPFLGGMIFIKFGGAALFLAIAGIMALGGIAQYRAVSRLKKLVLYSTWY | failed
3 | MCRTRPSCGRMEEKRPVDAAGAVALIGIAALLAFNQVVIKVTGGGFGPLFQAGLRSALGLVFVLIWMRLLRKPIVFPRAALMGALITGLLFTVEFMALFAALDLTSVSRVSILFYSMPVWLALGGHFLLPGERLSGMRVLGLMLAMGGVVLALLERDAAHVSLLGDALAVFAAMCWAAIALGVRLTPLGRVPAEMQLMSQLVISAPLLLVLAPLTGETLRTPGLLHWAGLLFQAVGVVGLGFLIWFRLLAVYRANGVASFSFLSPVLAVILGWLLLGEQVGPLVWLALGLVAAGIVLINRR | failed
4 | MCRYCLIVAARVGAVDDARFDMTAPDLIPIETLFGMPEFSRAQISPDGRLVAYLAPWRGRLNIWVRPVGQGTARRLTGDDTRNIDGFSWTRDTRYLLFIQDTQGDENWHLHRVEVDGAEAVGGKARTVDLTPYSGVRVMGLELSAAFPSKAFVQMNLRTPDLIDLYEVDIESAETRVAALNPGRFVRWIVTPNGPMHAFIINDVGDHELARYENGVFTTLAKLSGRDQPIGPMPLMVAADGESVLVGCNAGSDHTYLAAIDLATGKCRVIDSQPDCSLDTPRPEADPRFPSSLITNPVTGELLAVRYLGKRQQIRPLNLRFAAVLNSLQRLSDGEIGYISCDAGGRQWVAEFWDDRHPGTTWFYEHESGEAHVLGERFSALSAERLVSVRPIDVISRDGLTLPCHVTLPVGFDAKDEPRALPTVLLVHGGPWYRDACVYDPEVQFLANRGYAVLQVNFRGSTGYGKAFMQAAIGEFSGRMHDDLIDGLDWLIGQGIADPARVAIYGCSYGGYAALVGASFTPERFTATISYSGISDLRMLVNGVVPFVQPTLINTYLSYMGDPDIETQNRDMLARSPVSRLDCISKPLLVVHGANDVRVAKAQADMVVERVRANGVEVDYLLNEREGHWFINEDSNIELYRKIERFLARHLRGE | failed
5 | MCSALVVAAPHSGSGKTTVTAAIARYHRVQGRKVTVFKVGPDFIDPMILRQASGELVYQLDLWLVGEQGCRALLHRAAMDSDLILIEGVMGLFDGTPSSADLAKYFNIPVLGVIDAKAMAQTFAAVTFGLAKFCEDLPFSGVIANRVNTERHAELLSVSLPKAFRFYGRIPKDDTITLPERHLGLVQAQELSDIDVQLDKAASHIANTGLTELPSQVEFFAQEDDNQENIIEGALAGTRIIIIRDSAFSFIYAANIAFLTQTGAELIYCSAMADVHLPDGDILYIPGGYPELYAEQLMNNVTFLSDIRAFSASNKPIVAECGGMLYLLEQLTDMEGQQFSMLGLMPGKATMQKKLAAIGSQWVPLPSFADAAEDSADNIMRGHSFHYSCAEIELEPSSQTTHHPSERAGEYVYQHNNILASYMHWYFPSNPSLTLRIFDKARYLLEHHHHHH | not failed
6 | MCSLEKRDRLFILKLTGDGEHRLNPTLLDSLRSTINQIRSDPSFSQSVLITTSDGKFFSNGYDLALAESNPSLSVVMDAKLRSLVADLISLPMPTIAAVTGHASAAGCILAMSHDYVLMRRDRGFLYMSELDIELIVPAWFMAVIRGKIGSPAARRDVMLTAAKVTADVGVKMGIVDSAYGSAAETVEAAIKLGEEIVQRGGDGHVYGKMRESLLREVLIHTIGEYESGSSVVRSTGSKL | failed
7 | MCVRHDAGHGCLRAREGRRRPSMAPPCRKKINKPVLVRVDEFCSAAVQAGNPIVPSTLETTHWATRRRPKEAGMASKMFKTVGRVAAGVAALSIAAAATTASADSRHHRHKRDKGGDVAAAAITAGVIGLVIGAAIADDGHRDDRYYDRRYAPPPPPPPTRYGHGYGYGYDYDYAPRPYYGDRECWTTREYNRRSGSYYERTVCR | failed
8 | MDAEAAKMIGAGLAAIGMIGSGIGVGNIWANLIATVGRNPAAKSTVELYGWIGFAVTEAIALFALVVALILLFAA | failed
9 | MDAKHIEKVFVKKVPAKSNKAQVKYPFDENSVNVLIIGLDKASNRSTYDLHRTDTILFLNINFKDKKVKGISIPRDTLTEIYKVGKWDKINSAFGYGGGEKEEGFFYTMETVSKLLGGMPIEYYVGFDLDAVRKVVNILGGVYVNVEVPVKVKTKWVNIDLKPGYQKLNGIETLYYALWRKTPGGDIDRIKRDKELILSVFEQLKESNKIITLPEIYWKIRRHFYTNLSLQQITSLAYFAQNMKKEDIVFESIPGDYFNYMGVSYWKPDYEGIKKLVKDLFGYDIEIDLKMPEKYKYARRIIVKAKKENNISYLEHHHHHH | not failed
10 | MDAKQLSKRLATVGAFVQPGARVADIGSDHAYLPANLALNHQISYGVAGEVVRGPFENARHEIQKLGLTDRLVARLADGLAAIEPADRIDTVTIAGMGGPLIRHILEQGPTQLAGVQRLVLEPNVGEATVREWLAANQFQIVAERILAEDGHTYEILCADRVDHQVTYTTAEQMFGPFLLAEKSPVFIAKWQRELQRVNAAVAQMQRAKVIPEEQLALAHAKIKLIEGVLTDASK | failed
11 | MDAKVAFSPHSDANGRLDEIGADIDTAQSSVLFSLAFLGQMTRGAIGPALGRALERPEVHVMGIADAEVRAGNLGLNVLTPDNRRRVVRAAALTGNVPPPFLTEPSGLAGVDGNQRGTRMHHKFVVLDFDKPTARVYLGSYNFSNPADDENGENLVVVRDRTVATSYMIEALRMYDHLEHHHHHH | failed
12 | MDALTVGELRRRVHALVLGKRQRVYSGAMFLVEVVHHPELSAMLGLEDNKLLLAMIAQRLQMQSDYFQVARHSSDSFMVWAPDLDPRSARDVAPEVLDALSQPYELRGQPLIVGFRLSGALYAQHGACFDELERSLHIAMLHLDESAGAAWNMFEPSMLEHQRHYQGLEHHHHHH | not failed
13 | MDAVKKAILGEVLEEEEAYEVMRALMAGEVSPVRAAGLLVALSLRGERPHEIAAMARAMREAARPLRVHRRPLLDIVGTGGDGKGLMXLSTLAALVAAAGGVAVAKHGXRAASSRAGSADLLEALGVDLEAPPERVGEAIEELGFGFLFARVFHPAMRHVAPVRAELGVRTVFXLLGPLTXPAGADAYVLGVFSPEWLAPMAEALERLGARGLVVHGEGADELVLGEXRVVEVGKGAYALTPEEVGLKRAPLEALKGGGPEEXAALARRLLKGEEKGPLADAVALAAGAGFYAAGKTPSLKEGVALAREVLASGEAYLLLERYVAFLRA | not failed
14 | MDCKKVIADYWNLRSSTYTNGENGFDAEERIIWRRMLENFLPPGQRLKVLDVGTGPGFLALLFAEMGHEVTAVDISMGMLEKARNNAKTLGVKVDLFHGDAEKLPFEDCYFDLVVNKYLLWTLPQPEIAVQEWMRVLKPGGRVFAIDGNWFNPRPDKKVKRWITGVVNPDMNKNPSRSFFNEFYGPIRKALPLYEDISPENVSVVFSKMGFENTAVNPLQEAQKFKKSKLPFIQRFLRDTPIFLITGQKATE | failed
15 | MDDKTAGGKIVMNKEQLLLFMENRRKQEDHRLALAKEATRSEMVDRKASGKIIMNHDQQLMFNEDHRLAVKKASRSEMVDLEGMGSEASVIMSNVPQPTSFSEDHKLAIKNIISKIVKEIRDRDHPA | failed
16 | MDDLKTRVITASVVAPFVVLCFVSYESLIGLVSAILILAGYELITLEMKERDARFFYVILLALYPVLYGLVFEEPTQPLSILFITGVVFSLITDKDPSQVFKTVAAFSIALIYVTFFLSFFLPIYRDFGAANALLVLTSTWVFDSFAYFTGLKFGRTRISPRYSPRKSLEGVIGGFLGVVIYTFLYRLVVNDLLSVNVISFRTFLPFAATVAIMDTFGDIFESALKRHYGVKDSGKTLPGHGGMLDRIDGLLFVAPVSYIVFKILEGVVR | failed
17 | MDDLNPLAGTAHLLEEVDKKLMVLLRDGRTLIGYLRSVDQFANLVLQRTIERIHVGNEYGDIPRGVFIIRGENVVLLGEIDREKEQKLPLKEISVDEILDAQRREQEQRQEKHRLVSKALKERGLAVDANIINEDFC | failed

From a protein production outcome set (Wang et al. 2014)
